Test results taken from article PMC6182170.
Residue numbers refer to the chain shown, from its start.

Key:
Assay in all cases: EMSA
Settings in all cases: EMSA: 20 pM dsRNA, 50 mM KCl, 10 mM Tris-HCl pH 8.0, 10% glycerol, 1 mM MgCl2, 0.5 mM DTT, on ice 30 min; native 6% gel, 0.5x TBE, 4 C
[1] = target: ADR-1 WT;ADR-2 WT (Caenorhabditis elegans;Caenorhabditis elegans) (UniProt Q9U3D6+Q22618)
[2] = target: T1, ADR-1 dsRBD1 mutant (ds1) K223E;K224A;K227A (Caenorhabditis elegans) (UniProt Q9U3D6)
T1 sequence: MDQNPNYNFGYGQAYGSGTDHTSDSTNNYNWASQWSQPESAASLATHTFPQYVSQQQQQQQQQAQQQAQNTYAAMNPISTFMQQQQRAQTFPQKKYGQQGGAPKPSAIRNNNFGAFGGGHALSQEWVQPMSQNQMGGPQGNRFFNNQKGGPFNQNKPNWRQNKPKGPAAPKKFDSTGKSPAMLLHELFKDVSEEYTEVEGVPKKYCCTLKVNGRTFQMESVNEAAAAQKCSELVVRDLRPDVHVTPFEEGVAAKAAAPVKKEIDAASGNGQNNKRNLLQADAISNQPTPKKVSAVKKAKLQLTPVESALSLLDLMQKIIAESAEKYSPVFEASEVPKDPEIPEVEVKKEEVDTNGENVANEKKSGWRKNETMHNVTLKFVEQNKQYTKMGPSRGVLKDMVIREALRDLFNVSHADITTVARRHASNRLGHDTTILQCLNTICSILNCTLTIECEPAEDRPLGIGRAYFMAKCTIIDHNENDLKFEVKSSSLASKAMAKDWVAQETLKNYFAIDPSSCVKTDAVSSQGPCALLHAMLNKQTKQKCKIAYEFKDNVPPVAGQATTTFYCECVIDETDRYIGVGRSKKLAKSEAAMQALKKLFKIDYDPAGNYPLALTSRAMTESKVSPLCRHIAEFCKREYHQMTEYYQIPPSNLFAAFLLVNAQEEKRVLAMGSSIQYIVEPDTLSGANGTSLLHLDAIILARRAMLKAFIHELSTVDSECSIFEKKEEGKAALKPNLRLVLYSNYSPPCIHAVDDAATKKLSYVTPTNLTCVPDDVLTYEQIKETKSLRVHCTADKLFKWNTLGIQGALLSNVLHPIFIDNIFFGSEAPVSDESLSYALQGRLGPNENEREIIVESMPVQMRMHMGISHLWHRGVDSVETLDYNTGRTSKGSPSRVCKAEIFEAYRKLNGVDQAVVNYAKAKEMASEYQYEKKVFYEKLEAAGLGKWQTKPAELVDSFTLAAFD

[3] = target: T2, ADR-1 dsRBD2 mutant (ds2) K584E;K585A;K588A (Caenorhabditis elegans) (UniProt Q9U3D6)
T2 sequence: T1 sequence with E223K, A224K, A227K, K584E, K585A, K588A

Chain of ADR-1 WT;ADR-2 WT (Caenorhabditis elegans;Caenorhabditis elegans) (Q22618 whole entry, one chain of several): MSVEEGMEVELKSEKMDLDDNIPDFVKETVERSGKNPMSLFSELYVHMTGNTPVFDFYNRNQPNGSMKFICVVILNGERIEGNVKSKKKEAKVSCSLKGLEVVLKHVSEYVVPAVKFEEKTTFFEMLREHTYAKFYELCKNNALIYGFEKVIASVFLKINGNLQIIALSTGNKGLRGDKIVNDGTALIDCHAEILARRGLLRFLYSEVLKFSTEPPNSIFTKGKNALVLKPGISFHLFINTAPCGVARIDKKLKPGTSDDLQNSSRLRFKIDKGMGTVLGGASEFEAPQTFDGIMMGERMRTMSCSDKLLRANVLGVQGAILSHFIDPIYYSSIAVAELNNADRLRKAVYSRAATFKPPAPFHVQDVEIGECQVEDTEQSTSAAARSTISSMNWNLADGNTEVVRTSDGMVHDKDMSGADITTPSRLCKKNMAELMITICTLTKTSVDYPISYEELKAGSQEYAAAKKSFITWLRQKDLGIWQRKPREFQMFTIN

Sequence: UUAUUAGGUCGGCAAAUAAUUAUUGACGUGUUUUGCCAAUUAACGAUUUUUUGUAAAUUUUAUAUGUGUCUCUUACAGUAAACCGAGAGUGUAUAAAAGCAUAUGAAUAUCAGUUGCUUUGGUCAUCUGAGUAGUAAUACGAUUCGAAAAAAUCGAAAAGUUUUUUUUCCAAUUUUUUGAGUUAGCCGUGAGAGUUG / CAACUCUUCACAGCUAACUCAAAAAAUCGCGAAAAGCAUUUUUCAAAAAAUUUUUGAUUUUUUAGAUUCUUAAUACUACGCAGGUAGCCAAAGUAGCUGAUAUUUUUAUGUUUUCAUACAUUCACAUUUUACUAUAAGACACACAUACAAAAUUUACAAAAAUUGUUAAUUGACAAAAUACGUCAAUAAUUAUUUGUCUACCUAAUAA [lam-2 3'UTR 200 bp dsRNA]
- Kd [1]: 1.5 nM
- Kd [2]: 1.47 nM
- Kd [3]: 0.95 nM
